Source: the nanobody polyreactivity screen of Harvey et al. (2022)

Experiment: yeast display, Sf9 membrane polyspecificity reagent, FACS + sequencing; frameworks hold sequencing errors
In short: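 After 36–48 hours of galactose induction, yeast (Saccharomyces cerevisiae BJ5465) displaying a synthetic nanobody library were stained at 4 °C for 1 hour with 10% biotinylated, detergent-solubilized Sf9 membrane reagent. Streptavidin microbeads enriched the stained cells before FACS sorting into low and high (top ~1%) gates on anti-HA and streptavidin fluorescence. Each clone's polyreactivity label reflects its gate of origin.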

Row | Sequence | polyreactivity (PSR sort gate)
1 | QVQLVESGGGLVQAGGSLRLSCAASGSILASYAMGWYRPAPGKERELVAAISWNGARSYYADSVKGRFTISRDNAKNTVYLQMNSLKPEDTAVYYCAGVRVGRTTFDYWGQGTQVTVSS | low polyreactivity
2 | QVQLVESGGGLVQAGGSLRLSCAASGSILASYAMGWYRQAPGKERELVAAIRTSGDRTYYADSVKGRFTISRDNAKNTVYLQMNSLKPEDTAVYYCAATYRYRPYSYYQYYSWGQGTQVTVSS | high polyreactivity
3 | QVQLVESGGGLVQAGGSLRLSCAASGSILAYNAMGWYRQAPGKERELVASITTSGGSTYYADSVKGRFTISRDNAKNTVYLQMNSLKPEDTAVYYCNAEYWLGRWLRYGYWGQGTQVTVSS | high polyreactivity
4 | QVQLVESGGGLVQAGGSLRLSCAASGSILAYYAMGWYRQAPGKERELVADITSSGGITYYADSVKGRFTISRDNAKNTVYLQMNSLKPEDTAVYYCNADSWAIGGGSYPYDYWGQGTQVTVSS | low polyreactivity
5 | QVQLVESGGGLVQAGGSLRLSCAASGSILDLNAMGWYRQAPGKERELVAAISYSGDSTYYADSVKGRFTISRDNAKNTVYLQMNSLKPEDTAVYYCNAASFSDQGTLNHFYDWGQGTQVTVSS | low polyreactivity
6 | QVQLVESGGGLVQAGGSLRLSCAASGSILDPYAMGWYRQAPGKERELVADISSGASTNYADSVKGRFTISRDNAKNTVYLQMNSLKPEDTAVYYCAAVYVEYSEYRYIVELYYWGQGTQVTVSS | low polyreactivity
7 | QVQLVESGGGLVQAGGSLRLSCAASGSILDYYVMGCSRQSPGKERELVAAIRGGGSTYYADSVKGRFTISRDNAKNTVYLQMNSLKPEDTAVYYCAKDSQTARDFDYWGQGTQVTVSS | low polyreactivity
8 | QVQLVESGGGLVQAGGSLRLSCAASGSILEIYAMGWYRPAPGKEREFVASISWDVSSTYYADSVKGRFTISRDNAKNTVYLQMNSLKPEDTAVYYCATSLVWGLYDWYYDLSAAFDYWGQGTQVTVSS | low polyreactivity
9 | QVQLVESGGGLVQAGGSLRLSCAASGSILEIYAMGWYRQAPGKEREVVASISWDVSSTYYADSVKGRFTISRDNAKNTVYLQMNSLKPEDTAVYYCATSLVWGLYDWYYDLSAAFDYWGQGTQVTVSS | low polyreactivity
10 | QVQLVESGGGLVQAGGSLRLSCAASGSILEPYAMGWYRQAPGKERELVATIRRGGSTYYADSVKGRFTISRDNAKNTVYLQMNSLKPEDTAVYYCAADRSVQVTFDYWGQGTQVTVSS | low polyreactivity
11 | QVQLVESGGGLVQAGGSLRLSCAASGSILFKNAMGWYRQAPGKERELVAAISTSGGRTYYADSVKGRFTISRDNAKNTVYLEMNSLKPEDTAVYYCAAVYPRQVSQVWRDDYWGQGTQVTVSS | high polyreactivity
12 | QVQLVESGGGLVQAGGSLRLSCAASGSILFYYAMGWYRQAPGKERELVAAITWRGGSTYYADSVKGRFTISRDNAKNTVYLQMNSLKPEDTAVYYCAADLYWYRYYGYDYWGQGTQVTVSS | low polyreactivity
13 | QVQLVESGGGLVQAGGSLRLSCAASGSILGFNAMGWYRQPPGKERELVAAIRWSGDSTYADSVKGRFTISRDNAKNSVYLQMNSLKPEDTAVYYCNAVTTYGYWYKYDYWGQGTQVTVSS | low polyreactivity
14 | QVQLVESGGGLVQAGGSLRLSCAASGSILGRYAMGWYRQAPGKERELVAVITSGGSTNYADSVKGRFTISRDNAKNTVYLQMNSLKPEDTAVYYCAVRPYELHRLADQPGGDDYWGQGTQVTVSS | low polyreactivity
15 | QVQLVESGGGLVQAGGSLRLSCAASGSILGSYAMGWYRQAPGKERELVAAISWNGARTYYADSVKGRFTISRDNAKNTVYLQMNSLKPEDTAVYYCARVRVGRTTFDYWGQGTQVTVSS | low polyreactivity
16 | QVQLVESGGGLVQAGGSLRLSCAASGSILGTYAMGWYRQAPGKERELVAAISWNGGSTYYADSVKGRFTISRDNAKNTVYLQMNSLKPEYTAVYYCAARQWSQGWYDYWGQGTQVTLSS | high polyreactivity
